Results from US20230265151A1, “GIP/GLP1 CO-AGONIST COMPOUNDS” (priority 2020, published 2023).
Substitutions are numbered along the chain they refer to.

T1: human GIP receptor (human, UniProt P48546 22-466)
T1 construct: whole, on cells; also called hGIPR; human glucose-dependent insulinotropic polypeptide receptor
T1 sequence (looked up): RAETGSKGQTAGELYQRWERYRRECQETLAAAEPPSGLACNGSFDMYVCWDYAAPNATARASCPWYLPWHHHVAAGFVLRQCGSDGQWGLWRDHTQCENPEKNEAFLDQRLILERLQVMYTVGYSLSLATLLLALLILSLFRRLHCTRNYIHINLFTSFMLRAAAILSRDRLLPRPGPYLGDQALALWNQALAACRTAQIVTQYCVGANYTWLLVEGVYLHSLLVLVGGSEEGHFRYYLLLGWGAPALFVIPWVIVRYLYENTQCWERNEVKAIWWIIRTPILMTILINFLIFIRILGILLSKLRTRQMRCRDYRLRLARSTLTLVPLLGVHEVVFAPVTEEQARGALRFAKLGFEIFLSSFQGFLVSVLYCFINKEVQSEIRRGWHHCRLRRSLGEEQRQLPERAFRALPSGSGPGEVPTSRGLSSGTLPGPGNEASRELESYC

B1: Y-Aib-EGT-αMeF(2F)-TSD-4Pal-Aib-I-αMeL-LD-Orn-QAQ-Aib-Orn-FIK(PEG5-(γ-Glu)-CO-(CH2)12-CO2H)-αMeY-LIK(PEG5-(γ-Glu)-CO-(CH2)12-CO2H)GGPSSGAPPPS-NH2 (peptide)
peptide: YXEGTXTSDXXIXLDXQAQXXFIKXLIKGGPSSGAPPPS
modifications: Aib2, αMeF(2F)6, 4Pal10, Aib11, αMeL13, Orn16, Aib20, Orn21, K24(Z1), αMeY25, K28(Z1), C-term NH2; Z1=PEG5-(γ-Glu)-CO-(CH2)12-CO2H
B2: Y-Aib-EGT-αMeF(2F)-TSD-4Pal-Aib-I-αMeL-LD-Orn-QAQ-Aib-Orn-FIK(PEG6-(γ-Glu)-CO-(CH2)12-CO2H)-αMeY-LIK(PEG6-(γ-Glu)-CO-(CH2)12-CO2H)GGPSSGAPPPS-NH2 (peptide)
peptide: B1 peptide
modifications: Aib2, αMeF(2F)6, 4Pal10, Aib11, αMeL13, Orn16, Aib20, Orn21, K24(Z1), αMeY25, K28(Z1), C-term NH2; Z1=PEG6-(γ-Glu)-CO-(CH2)12-CO2H
B3: Y-Aib-EGT-αMeF(2F)-TSD-4Pal-Aib-I-αMeL-LD-Orn-QAQ-Aib-Orn-FIK(PEG3-(γ-Glu)-(10-(4-carboxyphenoxy)decanoyl))-αMeY-LIK(PEG3-(γ-Glu)-(10-(4-carboxyphenoxy)decanoyl … (peptide)
peptide: B1 peptide
modifications: Aib2, αMeF(2F)6, 4Pal10, Aib11, αMeL13, Orn16, Aib20, Orn21, K24(Z1), αMeY25, K28(Z1), C-term NH2; Z1=PEG3-(γ-Glu)-(10-(4-carboxyphenoxy)decanoyl)
B4: Y-Aib-EGT-αMeF(2F)-TSD-4Pal-Aib-I-αMeL-LD-Orn-QAQ-Aib-Orn-FIK((γ-Glu)-(2-[2-(2-Amino-ethoxy)-ethoxy]-acetyl)2-(γ-Glu)-(10-(4-carboxyphenoxy)decanoyl))-αMeY-LIK( … (peptide)
peptide: B1 peptide
modifications: Aib2, αMeF(2F)6, 4Pal10, Aib11, αMeL13, Orn16, Aib20, Orn21, K24(Z1), αMeY25, K28(Z1), C-term NH2; Z1=(γ-Glu)-AEEA2-(γ-Glu)-(10-(4-carboxyphenoxy)decanoyl)
B5: Y-Aib-EGT-αMeF(2F)-TSD-4Pal-SI-αMeL-LD-Orn-K((2-[2-(2-Amino-ethoxy)-ethoxy]-acetyl)2-(γ-Glu)-CO-(CH2)14-CH3)AQ-Aib-EFIK((2-[2-(2-Amino-ethoxy)-ethoxy]-acetyl)2- … (peptide)
peptide: B1 peptide with X11S, Q17K, X21E, K28E
modifications: Aib2, αMeF(2F)6, 4Pal10, αMeL13, Orn16, K17(Z1), Aib20, K24(Z1), αMeY25, C-term NH2; Z1=AEEA2-(γ-Glu)-CO-(CH2)14-CH3
B6: Y-Aib-EGT-αMeF(2F)-TSD-4Pal-Aib-I-αMeL-LD-Orn-QAQ-Aib-Orn-FIK((γ-Glu)-(2-[2-(2-Amino-ethoxy)-ethoxy]-acetyl)2-(γ-Glu)-CO-(CH2)12-CO2H)-αMeY-LIK((γ-Glu)-(2-[2-(2 … (peptide)
peptide: B1 peptide
modifications: Aib2, αMeF(2F)6, 4Pal10, Aib11, αMeL13, Orn16, Aib20, Orn21, K24(Z1), αMeY25, K28(Z1), C-term NH2; Z1=(γ-Glu)-AEEA2-(γ-Glu)-CO-(CH2)12-CO2H
B7: Y-Aib-EGT-αMeF(2F)-TSD-hY-SI-αMeL-LD-Orn-QAQ-Aib-Orn-FIK((2-[2-(2-Amino-ethoxy)-ethoxy]-acetyl)2-(γ-Glu)-CO-(CH2)12-CO2H)-αMeY-LIK((2-[2-(2-Amino-ethoxy)-ethoxy … (peptide)
peptide: B1 peptide with X11S
modifications: Aib2, αMeF(2F)6, hY10 (so in the source), αMeL13, Orn16, Aib20, Orn21, K24(Z1), αMeY25, K28(Z1), C-term NH2; Z1=AEEA2-(γ-Glu)-CO-(CH2)12-CO2H
B8: Y-Aib-EGT-αMeF(2F)-TSD-4Pal-Aib-I-αMeL-LD-Orn-QAQ-Aib-Orn-FIK((2-[2-(2-Amino-ethoxy)-ethoxy]-acetyl)-(γ-Glu)3-(10-(4-carboxyphenoxy)decanoyl))-αMeY-LIK((2-[2-(2 … (peptide)
peptide: B1 peptide
modifications: Aib2, αMeF(2F)6, 4Pal10, Aib11, αMeL13, Orn16, Aib20, Orn21, K24(Z1), αMeY25, K28(Z1), C-term NH2; Z1=AEEA-(γ-Glu)3-(10-(4-carboxyphenoxy)decanoyl)
B9: Y-Aib-EGT-αMeF(2F)-TSD-4Pal-Aib-I-αMeL-LD-Orn-QAQ-Aib-Orn-FIK((2-[2-(2-Amino-ethoxy)-ethoxy]-acetyl)-(γ-Glu)3-CO-(CH2)12-CO2H)-αMeY-LIK((2-[2-(2-Amino-ethoxy)-e … (peptide)
peptide: B1 peptide
modifications: Aib2, αMeF(2F)6, 4Pal10, Aib11, αMeL13, Orn16, Aib20, Orn21, K24(Z1), αMeY25, K28(Z1), C-term NH2; Z1=AEEA-(γ-Glu)3-CO-(CH2)12-CO2H
B10: Y-Aib-EGT-αMeF(2F)-TSD-4Pal-Aib-I-αMeL-LD-Orn-QAQ-Aib-Orn-FIK((2-[2-(2-Amino-ethoxy)-ethoxy]-acetyl)2-(γ-Glu)2-CO-(CH2)12-CO2H)-αMeY-LIK((2-[2-(2-Amino-ethoxy)- … (peptide)
peptide: B1 peptide
modifications: Aib2, αMeF(2F)6, 4Pal10, Aib11, αMeL13, Orn16, Aib20, Orn21, K24(Z1), αMeY25, K28(Z1), C-term NH2; Z1=AEEA2-(γ-Glu)2-CO-(CH2)12-CO2H

These binders were tested against T1, human GIP receptor (assay: SPA competition vs [125I]-GIP, hGIPR membranes).
In the case of B1, the Ki is reported as 0.0486 nM. B2 showed a Ki of 0.0199 nM. In the case of B3, the Ki is reported as 0.0102 nM. With B4 the Ki was 0.0236 nM. In the case of B5, the Ki is reported as 0.0217 nM. For B6, the Ki was 0.0277 nM. In the case of B7, the Ki is reported as 0.0301 nM. Binder B8 has a Ki of 0.0714 nM. With B9 the Ki was 0.046 nM. B10 gave a Ki of 0.0427 nM.

What follows are binders tested against T2, human GLP-1 receptor (human, UniProt P43220 24-463) (assay: SPA competition vs [125I]-GLP-1, hGLP-1R membranes).
T2 construct: whole, on cells; also called hGLP-1R; human glucagon-like peptide-1 receptor
Summary of the method: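 Competition binding in 25 mM HEPES pH 7.4, 2.5 mM CaCl₂, 1 mM MgCl₂, 0.1% bacitracin, 0.003% TWEEN-20, EDTA-free protease inhibitors. IC₅₀ from four-parameter nonlinear fit; Kᵢ given as geometric mean ± SEM, n = independent replicates on different days.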
B1 gave a Ki of 0.381 nM. In the case of B2, the Ki is reported as 0.2 nM. In the case of B3, the Ki is reported as 0.125 nM. Work on B4 yielded a Ki of 0.263 nM. For B5, the Ki was 0.301 nM. B6 was tested, and the Ki was 0.254 nM. With B7 the Ki was 0.182 nM. B8 was tested, and the Ki was 0.217 nM. B9 showed a Ki of 0.299 nM. B10 showed a Ki of 0.343 nM.

What follows are binders tested against T3, human glucagon receptor (human, UniProt P47871 26-477) (assay: SPA competition vs [125I]-Gcg, hGcgR membranes).
T3 construct: whole, on cells; also called hGCGR; hGcgR
T3 sequence (P47871 26-477): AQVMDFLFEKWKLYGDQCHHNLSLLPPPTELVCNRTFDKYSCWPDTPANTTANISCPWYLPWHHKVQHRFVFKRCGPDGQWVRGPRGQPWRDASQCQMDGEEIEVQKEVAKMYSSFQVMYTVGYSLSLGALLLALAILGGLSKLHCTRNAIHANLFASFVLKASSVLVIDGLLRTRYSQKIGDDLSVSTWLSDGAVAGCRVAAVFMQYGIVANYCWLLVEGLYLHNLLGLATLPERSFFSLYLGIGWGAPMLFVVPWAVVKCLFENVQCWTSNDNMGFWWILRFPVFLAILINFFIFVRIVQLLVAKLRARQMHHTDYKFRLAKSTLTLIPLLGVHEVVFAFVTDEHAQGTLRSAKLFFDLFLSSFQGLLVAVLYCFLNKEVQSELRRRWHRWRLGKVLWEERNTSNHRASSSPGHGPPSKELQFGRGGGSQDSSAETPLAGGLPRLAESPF
B1 was tested, and the Ki was 208 nM. B2 gave a Ki of 342 nM. Binder B3 has a Ki of 87.5 nM. With B4 the Ki was 151 nM. Work on B5 yielded a Ki of 0.596 nM. B6 showed a Ki of 273 nM. Binder B7 has a Ki of 94.4 nM. Binder B8 has a Ki of 73.3 nM. In the case of B9, the Ki is reported as 115 nM. In the case of B10, the Ki is reported as 382 nM.
